Experimental data reported in the RNAGym collection of RNA variant scans (doi:10.7554/elife.90254).

B1: OR4K15 (parent)
chain: GUUAACGGUCAUAGGCCAUGGAAACUAGGAGCACCAUUUCGCUGCCAGUGAAGAAAUGAACAAAGAAAAUCUGGGCCAGGCAGGCAUCAAAAGAAAUAGUCUUGCGCUCAACCAGAAAGUCUGUAAUCAUUUUAAGGGUA

Variants of: B1
Assay: self-cleavage, relative activity (ratio to wild type); higher = more cleavage; in vitro, sequencing; the parent is a self-cleaving ribozyme

Point of comparison: U87C U133C, self-cleavage 1.4. Against it:
- A89G U100C — higher, 2
- C85G U130C — lower, 0.34
- C81A U122C — lower, 0.22
- A86U A95G — higher, 2.02
- A82G U132C — lower, 0.5
- A82C A116G — lower, 0.09
- C81G A82G — lower, 0.3
- U87C U130C — lower, 0.55
- U87C A92G — lower, 0.43
- A89C G106C — lower, 0
- A82U U130C — lower, 0.14
- G83A U131A — lower, 0.94
- U87C U97C — higher, 1.63
- G83U A116G — lower, 0.2
- A86U A89G — higher, 2.16
- G83A A92G — higher, 1.87
- C81A A92G — lower, 0.26
- U87G U127C — lower, 0.22
- U87C C128U — lower, 0.76
- A86U U139G — higher, 1.57
- A89C U108C — lower, 0.01
- A89G A92G — lower, 1.02
- A89G A92U — higher, 1.57
- C85G A125G — lower, 0.55
- A82G A126G — lower, 0.33
- A82G A91G — lower, 0.12
- A86U A116G — lower, 0.59
- A82G G99U — lower, 0.07
- C85U A117G — lower, 1.16
- A89G A90U — lower, 1.39
- A89G C107U — lower, 0
- G83A A98U — higher, 1.82
- A82C A125U — lower, 0
- A82G A114U — lower, 0.03
- A82G A114G — lower, 0.08
- A89C U122C — higher, 1.75
- C85A A135G — higher, 1.54
- U87G A91G — lower, 0.11
- G84A A111G — lower, 0.01
- A89C A90G — lower, 0.73
- C85G A135G — lower, 0.85
- A89C C107U — lower, 0.04
- A86G A91U — lower, 0.73
- A86G A91G — lower, 0.16
- C85U A96U — higher, 1.58
- A86C G106U — lower, 0.01
- C85G A126G — lower, 0.2
- A89G G106A — lower, 0.01
- A82U U103C — lower, 0.03
- C81U A86G — lower, 0.17
- A89G A126G — lower, 0.6
- A82G U139G — lower, 0.26
- A82G U139A — lower, 0.23
- G84A A94G — lower, 0.98
- A86U G93U — higher, 2.01
- A86G U132C — lower, 1.16
- U87C U133A — lower, 0.9
- C81U U127C — lower, 0.22
- U87C U139C — lower, 0.35
- G84U A126G — lower, 0.45
- A82G A90G — lower, 0.31
- G83A U103C — lower, 0.41
- A86C A89G — lower, 1.17
- A86U A117G — higher, 2.1
- A86U A110G — lower, 0.09
- A86U A110C — lower, 0.36
- A82U U120C — lower, 0.03
- U87C U122A — lower, 1.32
- A82U A114G — lower, 0.03
- A82U A114U — lower, 0.01
- A86U A114U — lower, 0.11
- A86U A114G — lower, 1.22
- A82U A110G — lower, 0.04
- A89G C113G — lower, 0.01
- U87A U132C — lower, 1.35
- A86G U102A — lower, 1.36
- A89G A125G — lower, 0.16
- A82U A91G — lower, 0.11
- A82G U102C — lower, 1.16
- A82G U102A — lower, 0.34
- U87C G115U — lower, 0.29
- U87C C113U — lower, 0.12
- U87C C113A — lower, 0.01
- U87A C88U — lower, 1.17
- C85U U127C — lower, 0.82
- A89G U131C — lower, 0.59
- C85A A140G — higher, 1.84
- A86G U87A — the same, 1.4
- A82U A118G — lower, 0.06
- A86G C105A — lower, 0.02
- A89G A118U — lower, 0.54
- A89G A118G — lower, 1.18
- A82G A140U — lower, 0.53
- A86C U139C — lower, 0.51
- U87G U132C — lower, 0.88
- C81U C112U — lower, 0.01
- A89G A95U — higher, 1.95
- A82U A92U — lower, 0.26
- A89G A116C — lower, 0.22
- U87A A89G — lower, 0.91
- A82U U124C — lower, 0.18
- G84C A94G — lower, 0.32
- A86U G123A — higher, 1.59
- U87G U100A — lower, 0.06
- A82U A94G — lower, 0.26
- A86G U120A — higher, 1.8
- G84A U131C — higher, 2.37
- A82G U97A — lower, 0.92
- A82G U97C — lower, 0.5
- A82C A118G — lower, 0.11
- A86U U102C — higher, 2.39
- C85A G106U — lower, 0.03
- A89G U130C — higher, 1.79
- A82U U122A — lower, 0.16
- A82U U122C — lower, 0.17
- C85U A134G — higher, 2.28
- A86U A125G — lower, 0.95
- A86G A89U — higher, 1.86
- C81A A114U — lower, 0.03
- C85G A110G — lower, 0.03
- A82G U124C — lower, 0.27
- A82U U108A — lower, 0.03
- C88G A129G — higher, 2.37
- A86U C109U — lower, 0.6
- A82G U130C — lower, 0.14
- A82G A111G — lower, 0.04
- A82G A111C — lower, 0.01
- A82G A111U — lower, 0.09
- A82U A126G — lower, 0.1
- A82U A126U — lower, 0.19
- U87C U108A — lower, 0.01
- U87C U108C — lower, 0.01
- C81A A135G — lower, 0.22
- A86G A110U — lower, 1.06
- A86G U100C — higher, 2.12
- A86G U100A — lower, 0.41
- A86G A126G — lower, 1.18
- U87C U132A — lower, 0.81
- A82U A111G — lower, 0.02
- U87A A96G — higher, 2.29
- U87A A96U — higher, 1.68
- A82C A86U — lower, 0.13
- C81U U108C — lower, 0.02
- C81U U108A — lower, 0.02
- A82G G138C — lower, 0.66
- U87A U130C — lower, 1.36
- A86U A92G — higher, 1.46
- A82U U132C — lower, 0.18
- A89G U103G — lower, 0.02
- A82U A89G — lower, 0.1
- A82U A89U — lower, 0.32
- U87C A98U — higher, 1.9
- U87C A98G — lower, 0.74
- G83A U108C — lower, 0.02
- U87A U103C — lower, 0.68
- A86C U127A — higher, 1.62
- A89G U124A — lower, 1.38
- U87G A126G — lower, 0.48
- A89G A110U — lower, 0.77
- A82G A125G — lower, 0.23
- C88U U108C — lower, 0.01
- C88U U120C — higher, 1.46
- A86G A98U — higher, 1.73
- G84U U130C — lower, 0.28
- A89G A135G — higher, 1.68
- A89G A135U — lower, 1.15
